Laboratory results: the supplement of paper PMC7125110
± gives the standard error. For some of these results: This sample holds only a part of the variants without activity.

B1: glmS ribozyme (parent)
chain: AUAAAAGCGCCAGAACUACAGAAAUGUAGUUGACGAGGAGGAGGUUUAUCGAAUUUUCGGCGGAUGCCUCCAAA

How the values were obtained:
Settings in all cases: with glucosamine-6-phosphate
[1] = variants of: B1; assay: kcat; higher = faster cleavage; RNA array
In short: (§1)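 kcat and KM were obtained from weighted Michaelis–Menten fits across concentrations of kobs values. Those came from one- or two-exponential decay fits to per-tile medians normalised to baseline and to non-cleaving reference variants. The variants were barcoded ribozymes transcribed in situ by E. coli RNA polymerase on sequenced MiSeq chips and tracked through a hybridised Cy3 probe at 37 °C, with 40 μM to 10 mM glucosamine-6-phosphate in HEPES/KCl/Mg(OAc)2 buffer flowed in.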

[2] = variants of: B1; assay: KM; higher = weaker cofactor use; RNA array
In short: as §1

[3] = variants of: B1; assay: self-cleavage kobs at 2500 uM GlcN6P; higher = faster cleavage; RNA array
In short: as §1

[4] = variants of: B1; assay: self-cleavage kobs at 10000 uM GlcN6P; higher = faster cleavage; RNA array
In short: as §1

[5] = variants of: B1; assay: self-cleavage kobs at 40 uM GlcN6P; higher = faster cleavage; RNA array
In short: as §1

[6] = variants of: B1; assay: self-cleavage kobs at 160 uM GlcN6P; higher = faster cleavage; RNA array
In short: as §1

[7] = variants of: B1; assay: self-cleavage kobs at 640 uM GlcN6P; higher = faster cleavage; RNA array
In short: as §1

Row | Variant | kcat [1] | KM [2] | self-cleavage kobs at 2500 uM GlcN6P [3] | self-cleavage kobs at 10000 uM GlcN6P [4] | self-cleavage kobs at 40 uM GlcN6P [5] | self-cleavage kobs at 160 uM GlcN6P [6] | self-cleavage kobs at 640 uM GlcN6P [7]
1 | A14G C50A | 7.1e-05 ± 2e-06 s⁻¹ | 1890 ± 220 µM | 3.98e-05 ± 9.6e-06 s⁻¹ | 5.99e-05 ± 7e-06 s⁻¹ | – | – | –
2 | G13U C34U | < 1e-05 s⁻¹ | – | < 1e-05 s⁻¹ | – | < 1e-05 s⁻¹ | – | –
3 | G13C G43U C67A | 6.76e-05 ± 3.4e-05 s⁻¹ | – | – | – | – | – | –
4 | A14C C71G | 0.000465 ± 0.00016 s⁻¹ | – | 0.00017 ± 2.9e-05 s⁻¹ | 0.00038 ± 4.5e-05 s⁻¹ | – | 3.11e-05 ± 1e-05 s⁻¹ | 0.000228 ± 7.6e-05 s⁻¹
5 | A14G U56A | 0.121 ± 0.022 s⁻¹ | 1930 ± 400 µM | 0.0642 ± 0.024 s⁻¹ | 0.126 ± 0.053 s⁻¹ | 0.00249 ± 0.00036 s⁻¹ | 0.00984 ± 0.0021 s⁻¹ | 0.0275 ± 0.0058 s⁻¹
6 | A14C G32C | 0.000467 ± 2.4e-05 s⁻¹ | 5350 ± 480 µM | 0.000149 ± 2.1e-05 s⁻¹ | 0.000304 ± 3.5e-05 s⁻¹ | – | – | 4.87e-05 ± 1.2e-05 s⁻¹
7 | A14U C67U | 0.00362 ± 0.00099 s⁻¹ | 2860 ± 930 µM | 0.00164 ± 0.00034 s⁻¹ | 0.0031 ± 0.00053 s⁻¹ | 6.23e-05 ± 7e-06 s⁻¹ | 0.000181 ± 2e-05 s⁻¹ | 0.000591 ± 7.1e-05 s⁻¹
8 | A14U C67G | 0.000352 ± 8e-06 s⁻¹ | 1670 ± 68 µM | 0.000215 ± 1.7e-05 s⁻¹ | 0.000296 ± 2.9e-05 s⁻¹ | – | 3.01e-05 ± 6.5e-06 s⁻¹ | 9.71e-05 ± 6.9e-06 s⁻¹
9 | A14G G51A | 1.48e-05 ± 1.8e-06 s⁻¹ | – | – | – | – | – | –
10 | G13C U55C | 9.82e-05 ± 8.2e-06 s⁻¹ | 1500 ± 410 µM | 5.66e-05 ± 1.3e-05 s⁻¹ | 8.8e-05 ± 1.5e-05 s⁻¹ | < 1e-05 s⁻¹ | – | 3.6e-05 ± 1.6e-05 s⁻¹
11 | G13C U55G | 0.000125 ± 2.7e-05 s⁻¹ | – | 6.8e-05 ± 9.4e-06 s⁻¹ | 9.6e-05 ± 1.2e-05 s⁻¹ | – | – | –
12 | A14C G66A | 0.00362 ± 0.0004 s⁻¹ | 1940 ± 370 µM | 0.00158 ± 0.00047 s⁻¹ | 0.00316 ± 0.00037 s⁻¹ | 7.72e-05 ± 1.3e-05 s⁻¹ | – | 0.000879 ± 0.00024 s⁻¹
13 | A14C U57A | 0.00019 ± 1.7e-05 s⁻¹ | – | 3.61e-05 ± 1.6e-05 s⁻¹ | 9.25e-05 ± 2.2e-05 s⁻¹ | – | – | –
14 | A14G A36U | 1.56e-05 ± 2.2e-07 s⁻¹ | – | – | – | < 1e-05 s⁻¹ | < 1e-05 s⁻¹ | –
15 | G13C U56A | 0.000106 ± 6.7e-06 s⁻¹ | 3410 ± 530 µM | 4.38e-05 ± 7.3e-06 s⁻¹ | 7.93e-05 ± 9.5e-06 s⁻¹ | – | – | –
16 | G13U A15C | 0.000268 ± 2.8e-05 s⁻¹ | 2790 ± 550 µM | 0.000142 ± 1.9e-05 s⁻¹ | 0.000202 ± 2.4e-05 s⁻¹ | – | – | 4.71e-05 ± 7.8e-06 s⁻¹
17 | G13C G32A | 0.00943 ± 0.0032 s⁻¹ | 3620 ± 1600 µM | 0.00305 ± 0.00052 s⁻¹ | 0.00781 ± 0.00085 s⁻¹ | 0.000142 ± 1.5e-05 s⁻¹ | 0.000338 ± 6.2e-05 s⁻¹ | 0.00124 ± 0.00016 s⁻¹

Row | Variant | kcat [1] | KM [2] | self-cleavage kobs at 2500 uM GlcN6P [3] | self-cleavage kobs at 10000 uM GlcN6P [4] | self-cleavage kobs at 40 uM GlcN6P [5] | self-cleavage kobs at 160 uM GlcN6P [6] | self-cleavage kobs at 640 uM GlcN6P [7]
18 | G13C G32U | 0.000576 ± 4.2e-05 s⁻¹ | 3170 ± 470 µM | 0.000258 ± 5.7e-05 s⁻¹ | 0.000436 ± 7.7e-05 s⁻¹ | – | – | 8.34e-05 ± 4.1e-05 s⁻¹
19 | A14U C58U | 0.000114 ± 1.5e-05 s⁻¹ | 2600 ± 960 µM | 5.89e-05 ± 1.1e-05 s⁻¹ | 9.01e-05 ± 1e-05 s⁻¹ | – | – | –
20 | A14U C58G | 0.000104 ± 9.8e-06 s⁻¹ | 1960 ± 710 µM | 4.98e-05 ± 1.1e-05 s⁻¹ | 8.81e-05 ± 7.2e-06 s⁻¹ | – | – | 3.48e-05 ± 1.2e-05 s⁻¹
21 | A14G C71U | 0.133 ± 0.062 s⁻¹ | – | 0.0711 ± 0.027 s⁻¹ | 0.112 ± 0.022 s⁻¹ | 0.0019 ± 0.00017 s⁻¹ | 0.00542 ± 0.00067 s⁻¹ | 0.0171 ± 0.0027 s⁻¹
22 | A14G U57C | 0.000646 ± 0.00012 s⁻¹ | 2530 ± 740 µM | 0.000276 ± 4.7e-05 s⁻¹ | 0.000577 ± 0.0001 s⁻¹ | – | 3.29e-05 ± 1.4e-05 s⁻¹ | 0.000142 ± 1.8e-05 s⁻¹
23 | A14G A64C | 0.000278 ± 1.8e-05 s⁻¹ | 906 ± 140 µM | 0.000217 ± 3.3e-05 s⁻¹ | 0.000247 ± 3e-05 s⁻¹ | – | – | 0.000118 ± 1.4e-05 s⁻¹
24 | G13C C70G | 2.09e-05 ± 5.8e-06 s⁻¹ | – | – | – | – | – | –
25 | G13C C58A | 0.000354 ± 6.9e-05 s⁻¹ | 7610 ± 2700 µM | 8e-05 ± 9.7e-06 s⁻¹ | 0.000203 ± 1.3e-05 s⁻¹ | – | – | 4.16e-05 ± 9.2e-06 s⁻¹
26 | A14G G43A | 0.000321 ± 4.1e-05 s⁻¹ | 4730 ± 1200 µM | 0.000101 ± 2.2e-05 s⁻¹ | 0.000222 ± 3.1e-05 s⁻¹ | < 1e-05 s⁻¹ | – | 4.36e-05 ± 1.3e-05 s⁻¹
27 | A14C U65C | 8.26e-05 ± 1.1e-05 s⁻¹ | 1220 ± 570 µM | 4.9e-05 ± 1.1e-05 s⁻¹ | 7.7e-05 ± 1.2e-05 s⁻¹ | < 1e-05 s⁻¹ | – | 3.59e-05 ± 1.4e-05 s⁻¹
28 | A14C A42U | 3.4e-05 ± 1.6e-05 s⁻¹ | – | – | 2.17e-05 ± 5.9e-06 s⁻¹ | – | – | –
29 | A14G C61U | 3.27e-05 ± 1.8e-06 s⁻¹ | 592 ± 240 µM | 2.91e-05 ± 9.3e-06 s⁻¹ | 3.02e-05 ± 6.3e-06 s⁻¹ | – | – | –
30 | G13C U31G | 0.000196 ± 4.5e-06 s⁻¹ | 1560 ± 90 µM | 0.000119 ± 1.8e-05 s⁻¹ | 0.00017 ± 2.2e-05 s⁻¹ | – | – | 5.79e-05 ± 1.2e-05 s⁻¹
31 | A14C U30C A53G | 1.63e-05 ± 3.1e-06 s⁻¹ | – | – | – | – | – | –
32 | A14G U31C C71A | 0.00296 ± 0.00085 s⁻¹ | 1430 ± 590 µM | 0.00227 ± 0.00096 s⁻¹ | 0.00241 ± 0.00085 s⁻¹ | 0.000143 ± 6.1e-05 s⁻¹ | 0.000251 ± 7.7e-05 s⁻¹ | –
33 | A14G C16A | 0.00509 ± 0.0016 s⁻¹ | 847 ± 380 µM | 0.00276 ± 0.00082 s⁻¹ | 0.00789 ± 0.0017 s⁻¹ | 0.000249 ± 4.2e-05 s⁻¹ | 0.000745 ± 0.00023 s⁻¹ | 0.0021 ± 0.00042 s⁻¹
34 | A14U A36C C50U | 1.43e-05 ± 5.6e-06 s⁻¹ | – | – | – | – | – | –
